Columns and labels:
Format in all cases: biochemical
[1] = target: T1, β2-microglobulin (β2m) (Homo sapiens, UniProt P61769); assay: β2-microglobulin fibrillation ThT assay; settings: 1:1 ratio
T1 construct: purchased MP Biomedical
Procedure: Addition of 5.8 μM αB crystallin peptides, ST, DR, LT, HG, and ER decreased the ThT fluorescence of β2m by 40-64%. When the concentration of the αB crystallin peptides was increased to 29 μM and 145 μM, no further decrease in ThT fluorescence was observed. The negative control peptide AT1 had no effect on β2m fibrillation even at a concentration as high as 290 μM. All five αB crystallin peptides inhibited β2m fibrillation at sub-stoichometric and stoichometric concentrations (5.8 μM and 29 μM).
The Thioflavin T (ThT) fluorescence of β2m in the presence of varying concentrations of αB crystallin peptides and controls was measured. […] When the concentration of the peptides was increased to 29 μM (1:1::peptide:β2m), the αB crystallin peptides decreased the ThT fluorescence by 35-65%. When the concentration of the peptides was increased further to 145 μM ([…]), the αB crystallin peptides decreased the ThT fluorescence by 13-27%. […] The formation and inhibition of β2-microglobulin fibrils was verified microscopically.
β2-microglobulin fibrillation ThT assays were performed as described previously. Raman et al., Biochem J 392:573-81, 2005; Ivanova et al., Proc Natl Acad Sci USA 101:10584-9, 2004. Peptides were dissolved to 2 mM in 0.25% DMSO and diluted accordingly, while β2-microglobulin was dissolved in 25 mM sodium acetate, 25 mM sodium phosphate, pH 2.4. For the 5:1::peptide:β2-microglobulin assay, 10 μL of 430 μM peptide was mixed with 10 μL of 86 μM β2-microglobulin, 7 μl of 25 mM sodium acetate, 25 mM sodium phosphate, pH 2.4 and 3 μL of 1 mM ThT. For the 1:1::peptide:β2-microglobulin assay, 10 μL of 86 μM peptide was mixed with 10 μL of 86 μM (2-microglobulin, 7 μl of 25 mM sodium acetate, 25 mM sodium phosphate, pH 2.4 and 3 μL of 1 mM ThT. For the 1:5::peptide:β2-microglobulin assay, 10 μL of 17.2 μM peptide was mixed with 10 μL of 86 μM β2-microglobulin, 7 μl of 25 mM sodium acetate, 25 mM sodium phosphate, pH 2.4 and 3 μL of 1 mM ThT. ThT fluorescence was measured using a Perkin Elmer Victor^3 V plate reader. Assays were performed in 384-well fluorescence plates in duplicates or triplicates. Samples were incubated at 37° C. ThT fluorescence was measured continuously for 180 minutes. The effect of the peptides and APS was calculated as percentage fibril formation relative to β2-microglobulin alone (100%) at the end of 180 minutes.

[2] = target: ADH (Equus caballus, UniProt P00327); assay: Chaperone assay, thermal aggregation of ADH at 50° C.; settings: 50:1 molar ratio of peptide:ADH, sixty minutes, 340 nm
Sequence of ADH (P00327 whole entry): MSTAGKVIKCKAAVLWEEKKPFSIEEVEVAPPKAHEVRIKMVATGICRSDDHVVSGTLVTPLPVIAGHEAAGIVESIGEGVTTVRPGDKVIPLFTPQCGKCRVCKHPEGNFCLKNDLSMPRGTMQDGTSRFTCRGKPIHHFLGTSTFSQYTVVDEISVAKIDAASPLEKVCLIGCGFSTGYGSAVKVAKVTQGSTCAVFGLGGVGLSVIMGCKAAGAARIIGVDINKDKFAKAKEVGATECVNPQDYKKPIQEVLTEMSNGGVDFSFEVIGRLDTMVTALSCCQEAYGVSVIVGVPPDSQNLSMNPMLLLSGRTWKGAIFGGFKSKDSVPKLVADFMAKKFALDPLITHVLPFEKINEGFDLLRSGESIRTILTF
Procedure: (§1) The chaperone activity of the peptides was measured as their ability to protect against the thermal aggregation of three chaperone target proteins βH crystallin, ADH and CS in chaperone assays performed at 50° C. (FIG. 19). A non-interactive αB crystallin sequence 111HGKHEERQDE120 was used as the negative control in the chaperone assays (FIG. 19). Based on near and far UVCD, the three target proteins unfolded in the order: CS>>>ADH>>βH crystallin when they were heated at 50° C. for sixty minutes (FIGS. 15 and 16). The thermal aggregation of βH crystallin, ADH and CS was measured as light scattering at λ=340 nm in the presence and absence of each peptide. The chaperone activity of each peptide was calculated as percent protection in which the aggregation of each target protein in the absence of any peptides was set at 0% protection (FIG. 19). The interactive peptides […] and 131LTITSSLSDGV141 were effective inhibitors of aggregation of all three chaperone target proteins.
(§2) A (top left): thermal aggregation of chaperone target proteins βH crystallin, ADH and CS in the absence of peptides was measured as light scattering at λ=340 nm. Each target protein was heated at 50° C. for sixty minutes in the absence or presence of one of the peptides. […] The chaperone activity of each peptide was calculated as percent protection in which the aggregation of each target protein in the absence of any peptides was set at 0% protection. The ability of the 73DRFSVNLDVKHFS85, 131LTITSSLSDGV141 and 111HGKHEERQDE120 to protect against the thermal aggregation of βH crystallin (B: top right), ADH (C: bottom left) and CS (D: bottom right) were tested in vitro (vertical bars). […] A 10:1 molar ratio of peptide:target protein was sufficient in conferring significant protection against the aggregation of CS by 73DRFSVNLDVKHFS85 and 131LTITSSLSDGV141.

[3] = tested on: βH crystallin; assay: Chaperone assay, thermal aggregation of βH crystallin at 50° C.; settings: 50:1 molar ratio of peptide:βH crystallin, sixty minutes, 340 nm
Procedure: as §1, §2

[4] = target: amyloid beta (1-42) (Homo sapiens, UniProt P05067); assay: Cu+++-induced aggregation of amyloid beta (1-42), light scattering 360 nm; settings: 100 mM Cu+++
Procedure: In vitro assays were also performed to measure the ability of the human αB crystallin derived peptides identified in Example 1 to inhibit aggregation of Cu^+++-induced amyloid beta (1-42) aggregation. Aggregation assays were performed using routine procedures, in the presence or absence of a synthesized peptide identified in Example 1, in the presence of 100 mM Cu^+++. Aggregation was measured spectrophotometrically as light scattering at a wavelength of 360 nm. Aggregated amyloid-beta was assigned a value of 100% aggregation and used to normalize aggregation in the presence of synthesize peptides.
Aggregation was measured spectrophotometrically as light scattering at a wavelength of 360 nm. Aggregated amyloid-beta was assigned a value of 100% aggregation and used to normalize aggregation in the presence of synthesize peptides. Aggregation was plotted as a bar graph with the standard error for duplicate experiments. The 1 st vertical bar is the scattering measured for aggregated amyloid-beta (100% aggregation) in the presence of 100 mM Cu^+++. The 2nd-4th vertical bars is the scattering from amyloid-beta in the presence of wild type recombinant human αB crystallin. The 5th-13th vertical bars are the scattering of amyloid-beta in the presence of the synthetic peptides, DRFSVNLDVKHFS or LTITSSLSDGV or HGKHEERQDE at selected concentrations. A prefix of 10× represents a 10:1 molar concentration of amyloid-beta to either wild type αB crystallin or its peptides. A prefix of 1× represents a 1:1 molar concentration of amyloid-beta to either wt αB crystallin or its peptides. A prefix of 0.1× represents a 1:10 molar concentration of amyloid-beta to either wt αB crystallin or its peptides.

T1 sequence (P61769 21-119): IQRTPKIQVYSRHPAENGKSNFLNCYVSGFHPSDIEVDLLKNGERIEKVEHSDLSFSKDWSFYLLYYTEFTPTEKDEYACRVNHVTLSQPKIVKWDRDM

Substance	inhibition of β2-microglobulin fibril formation, HG derived peptides [1] [%]	percent protection against thermal aggregation of ADH [2]	percent protection against thermal aggregation of βH crystallin [3]	prevention of Cu+++-induced aggregation of amyloid-beta ([4]; 1:1 and 1:10 molar ratio of amyloid-beta to peptide)	prevention of Cu+++-induced aggregation of amyloid-beta ([4]; 10:1 molar ratio of amyloid-beta to peptide)
EERQ	~100				
LTITSSLSDGV		approximately 30%	approximately 30%	equally effective	less effective
RQDE	~100				

Reference: US20070185028A1, “Compositions and methods for treatment of protein misfolding and protein aggregation diseases” (priority 2004, published 2007)
